Numbering of substitutions follows the chain as printed.

The labels stand for the following.
B1: 26D5-75602-348-F04-mAb: human IgG1f/kappa mAb; VH SEQ ID NO: 58, VL SEQ ID NO: 88 (antibody, V domains shown)
VH: EVQLVESGGGLIQPGGSLRLSCAASGFTVSSNQFSWVRQAPGKGLEWVSYFYPGGRTYYADSVKGRFTISRDNSKNTLYLQMNSLRAEDTAVYYCAKAGFGGGDYWGQGTLVTVSS
VL: DIQMTQSPSSVSASVGDRVTITCRASQGISSNLAWYQQKPGKAPKLLIYAASSLQSGVPSRFSGSGSGTDFTLTISSLQPEDFATYYCQQANSFPLTFGGGTKVEIK
B2: 26D5-296-G03-mAb: human IgG1f/kappa mAb; VH SEQ ID NO: 72, VL SEQ ID NO: 88 (antibody, V domains shown)
VH: B1 VH with T28Q, Q33Y, F34M, Y50F, F51I, K97R
VL: B1 VL
B3: 26D5-296-F07-mAb: human IgG1f/kappa mAb; VH SEQ ID NO: 71, VL SEQ ID NO: 94 (antibody, V domains shown)
VH: B1 VH with Q33Y, F34M, Y50F, F51I, P53S, K97R
VL: B1 VL with G28Y
B4: 26D5-296-F08-mAb: human IgG1f/kappa mAb; VH SEQ ID NO: 73, VL SEQ ID NO: 95 (antibody, V domains shown)
VH: B1 VH with Q33Y, F34M, Y50F, F51I, R56E, K97R, A98G
VL: B1 VL with G28Y, S30E
B5: 26D5-295-G07-mAb: human IgG1f/kappa mAb; VH SEQ ID NO: 69, VL SEQ ID NO: 88 (antibody, V domains shown)
VH: B1 VH with Q33Y, F34M, Y50F, F51I, K97R, A98G
VL: B1 VL
B6: 26D5-295-F07-mAb: human IgG1f/kappa mAb; VH SEQ ID NO: 64, VL SEQ ID NO: 88 (antibody, V domains shown)
VH: B1 VH with S31E, Q33A, F34M, Y50F, F51I, P53S, K97R, A98G
VL: B1 VL
B7: 25D5-296-A07-mAb: human IgG1f/kappa mAb; VH SEQ ID NO: 60, VL SEQ ID NO: 93 (antibody, V domains shown)
VH: B1 VH with Q33A, F34M, Y50F, F51I, K97R
VL: B1 VL with N32W, A91H
B8: 26D5-296-G08-mAb: human IgG1f/kappa mAb; VH SEQ ID NO: 70, VL SEQ ID NO: 95 (antibody, V domains shown)
VH: B1 VH with T28Q, Q33Y, F34M, Y50F, F51I, P53S, K97R
VL: B1 VL with G28Y, S30E
B9: 26D5-295-E07-mAb: human IgG1f/kappa mAb; VH SEQ ID NO: 66, VL SEQ ID NO: 88 (antibody, V domains shown)
VH: B1 VH with T28Q, Q33A, F34M, Y50F, F51I, P53S, K97R, A98G
VL: B1 VL
B10: 26D5-296-D08-mAb: human IgG1f/kappa mAb; VH SEQ ID NO: 69, VL SEQ ID NO: 95 (antibody, V domains shown)
VH: B1 VH with Q33Y, F34M, Y50F, F51I, K97R, A98G
VL: B1 VL with G28Y, S30E
B11: 26D5-296-G07-mAb: human IgG1f/kappa mAb; VH SEQ ID NO: 65, VL SEQ ID NO: 94 (antibody, V domains shown)
VH: B1 VH with S31E, Q33Y, F34M, Y50F, F51I, P53S, K97R
VL: B1 VL with G28Y
B12: 26D5-296-F03-mAb: human IgG1f/kappa mAb; VH SEQ ID NO: 70, VL SEQ ID NO: 88 (antibody, V domains shown)
VH: B1 VH with T28Q, Q33Y, F34M, Y50F, F51I, P53S, K97R
VL: B1 VL
B13: 26D5-75576-348-B03-mAb: human IgG1f/kappa mAb; VH SEQ ID NO: 59, VL SEQ ID NO: 88 (antibody, V domains shown)
VH: B1 VH with Q33D, F34M, W36Y, S49A, F51I, P53S, A96V, K97T
VL: B1 VL
B14: 26D5-296-H03-mAb: human IgG1f/kappa mAb; VH SEQ ID NO: 63, VL SEQ ID NO: 88 (antibody, V domains shown)
VH: B1 VH with Q33A, F34M, Y50F, F51I, K97R, A98G
VL: B1 VL
B15: 26D5-295-C07-mAb: human IgG1f/kappa mAb; VH SEQ ID NO: 67, VL SEQ ID NO: 88 (antibody, V domains shown)
VH: B1 VH with Q33A, F34M, Y50F, F51I, P53S, K97R, A98G
VL: B1 VL
B16: 26D5-075017-343-F04-mAb: human IgG1f/kappa mAb; VH SEQ ID NO: 60, VL SEQ ID NO: 91 (antibody, V domains shown)
VH: B1 VH with Q33A, F34M, Y50F, F51I, K97R
VL: B1 VL with Y36W
B17: 26D5-296-B07-mAb: human IgG1f/kappa mAb; VH SEQ ID NO: 68, VL SEQ ID NO: 93 (antibody, V domains shown)
VH: B1 VH with T28Q, Q33A, F34M, Y50F, F51I, P53S, K97R
VL: B1 VL with N32W, A91H
B18: 26D5-75746-0348-C07-mAb: human IgG1f/kappa mAb; VH SEQ ID NO: 57, VL SEQ ID NO: 92 (antibody, V domains shown)
VH: B1 VH with Q33A, F51I, P53S, K97A
VL: B1 VL with N32Q, L33V, A50P, S53N, Q55W, S93N
B19: 25D5-75592-0348-A04-mAb: human IgG1f/kappa mAb; VH SEQ ID NO: 61, VL SEQ ID NO: 89 (antibody, V domains shown)
VH: B1 VH with Q33A, F34I, S35A, S49A, F51I, A96V, K97T
VL: B1 VL with L33N, A34Q, A50Y, A91G, S93E
B20: 26D5-296-C08-mAb: human IgG1f/kappa mAb; VH SEQ ID NO: 66, VL SEQ ID NO: 95 (antibody, V domains shown)
VH: B1 VH with T28Q, Q33A, F34M, Y50F, F51I, P53S, K97R, A98G
VL: B1 VL with G28Y, S30E

A short description of one assay: SPR (Biacore) Protein A mAb capture, Compound A injected. Particulars: 37° C., binding to Compound A, apparent affinity, for rank ordering only, read-out: KD. The procedure:
The binding of hybridoma expressed 26D5 parent mAb (VH SEQ ID NO: 83 and VL SEQ ID NO: 98 in IgG1 f format)(P1-072224) and affinity matured mAbs to Compound A was examined by SPR (Biacore™) using a protein A capture method. The running buffer was 1×PBS (phosphate buffered saline, pH 7.4) with 0.05% Tween 20 and 2% DMSO. Binding experiments were carried out at 37° C. Protein A was coated on a CM5 S-series sensor chip (Cytiva, Cat. No. 29149603) at high density (2000+ RUs of protein A). The immobilization of protein A was carried out using the standard amine coupling immobilization procedure recommended by the manufacturer. The affinity matured antibody was then captured at a concentration of 2 ug/mL on the protein A surface at a flow rate of 3 uL/min for 2 minutes. Compound A was then injected over the captured antibody at concentrations spanning 100-3 nM (100, 50, 25, 12.5, 6.25, 3.125 nM) (FIG. 10) and for screening concentrations spanning 100-3 nM (100, 33, 11 nM) for 2 minutes at a flow rate of 100 uL/min and allowed to dissociate for at least 450 seconds. The chip surface was regenerated after each cycle with a 40 second pulse of 10 mM Glycine, pH 1.5. Background binding to the protein A surface alone was used to subtract non-specific binding. All experiments were run on a Biacore T200 surface plasmon resonance instrument using Biacore T200 Control software v. 2. Data analysis was performed using Biacore T200 evaluation software v 3.1. Apparent affinities were determined for rank ordering only since dissociation rates were too slow to be measured by Biacore. The names of the mAbs in Table 10 refer to mAbs having the H and L chain sequences of the corresponding Fabs in Table 3 in an IgG1f format.
(In SPR one partner is held on a chip, and binding of the other changes the refractive index at the surface.)
Consider B1, for which the Kd is less than 0.05 nM.

Regarding B2, the Kd was 0.61 nM.

As for B3, the Kd came out at 0.58 nM.

For the molecule B4, the Kd is 0.68 nM.

Take B5: the Kd turned out to be 0.67 nM.

Regarding B6, the Kd was 0.94 nM.

Turning to B7, the Kd is 1.6 nM.

On to B8, for which the Kd turned out to be 0.49 nM.

As to B9, the Kd stood at 1.2 nM.

As to B10, the Kd came to 0.59 nM.

For the molecule B11, the Kd amounted to 0.38 nM.

B12: the Kd was determined as 0.54 nM.

B13: the Kd is less than 0.06 nM.

Turning to B14, the Kd turned out to be 1.1 nM.

Take B15: the Kd turned out to be 1.6 nM.

For the molecule B16, the Kd was determined as 0.11 nM.

On to B17, for which the Kd was 1.8 nM.

With B18, the Kd came out at 0.1 nM.

As for B19, the Kd is 0.1 nM.

B20: the Kd worked out at 0.59 nM.

The same assay, now with this note: 37° C., binding to Compound A, apparent, for rank ordering only.
Take B1: the “Ka” value was determined as 910000 M⁻¹ s⁻¹ and the “Kd” value is less than 5e-05 s⁻¹.

Consider B2, for which the “Ka” value turned out to be 940000 M⁻¹ s⁻¹ and the “Kd” value came out at 0.00058 s⁻¹.

As to B3, the “Ka” value came to 760000 M⁻¹ s⁻¹ and the “Kd” value turned out to be 0.00044 s⁻¹.

Consider B4, for which the “Ka” value came out at 870000 M⁻¹ s⁻¹ and the “Kd” value worked out at 0.0006 s⁻¹.

Regarding B5, the “Ka” value was determined as 630000 M⁻¹ s⁻¹ and the “Kd” value is 0.00043 s⁻¹.

As for B6, the “Ka” value came out at 180000 M⁻¹ s⁻¹ and the “Kd” value was 0.00017 s⁻¹.

Regarding B7, the “Ka” value was 170000 M⁻¹ s⁻¹ and the “Kd” value stood at 0.00027 s⁻¹.

In the case of B8, the “Ka” value was 800000 M⁻¹ s⁻¹ and the “Kd” value was determined as 0.00039 s⁻¹.

For the molecule B9, the “Ka” value was determined as 190000 M⁻¹ s⁻¹ and the “Kd” value was found to be 0.00023 s⁻¹.

On to B10, for which the “Ka” value is 770000 M⁻¹ s⁻¹ and the “Kd” value turned out to be 0.00045 s⁻¹.

Regarding B11, the “Ka” value came to 850000 M⁻¹ s⁻¹ and the “Kd” value stood at 0.00032 s⁻¹.

In the case of B12, the “Ka” value came to 720000 M⁻¹ s⁻¹ and the “Kd” value amounted to 0.00039 s⁻¹.

As to B13, the “Ka” value is 880000 M⁻¹ s⁻¹ and the “Kd” value was less than 5e-05 s⁻¹.

In the case of B14, the “Ka” value is 160000 M⁻¹ s⁻¹ and the “Kd” value was 0.00018 s⁻¹.

For B15, the “Ka” value was found to be 200000 M⁻¹ s⁻¹ and the “Kd” value is 0.00033 s⁻¹.

Turning to B16, the “Ka” value came out at 1.5e+06 M⁻¹ s⁻¹ and the “Kd” value was determined as 0.00017 s⁻¹.

As to B17, the “Ka” value was 290000 M⁻¹ s⁻¹ and the “Kd” value was 0.00042 s⁻¹.

Regarding B18, the “Ka” value stood at 2.4e+06 M⁻¹ s⁻¹ and the “Kd” value was determined as 0.00024 s⁻¹.

For B19, the “Ka” value stood at 1e+06 M⁻¹ s⁻¹ and the “Kd” value stood at 0.00011 s⁻¹.

B20: the “Ka” value amounted to 530000 M⁻¹ s⁻¹ and the “Kd” value was found to be 0.00031 s⁻¹.

The values above are taken from patent US12065505B2, “Antibodies and antigen binding peptides for factor XIa inhibitors and uses thereof” (Bristol-Myers Squibb Company, priority 2021, dated 2024).
